Biological target: human LIFR expressed on the surface of 293T cells (human) (UniProt P42702)
Assay: flow cytometry on HEK293T-huLIFR cells, median fluorescence, span of the fitted curve

Sequence of human LIFR expressed on the surface of 293T cells (human) (P42702 45-1097): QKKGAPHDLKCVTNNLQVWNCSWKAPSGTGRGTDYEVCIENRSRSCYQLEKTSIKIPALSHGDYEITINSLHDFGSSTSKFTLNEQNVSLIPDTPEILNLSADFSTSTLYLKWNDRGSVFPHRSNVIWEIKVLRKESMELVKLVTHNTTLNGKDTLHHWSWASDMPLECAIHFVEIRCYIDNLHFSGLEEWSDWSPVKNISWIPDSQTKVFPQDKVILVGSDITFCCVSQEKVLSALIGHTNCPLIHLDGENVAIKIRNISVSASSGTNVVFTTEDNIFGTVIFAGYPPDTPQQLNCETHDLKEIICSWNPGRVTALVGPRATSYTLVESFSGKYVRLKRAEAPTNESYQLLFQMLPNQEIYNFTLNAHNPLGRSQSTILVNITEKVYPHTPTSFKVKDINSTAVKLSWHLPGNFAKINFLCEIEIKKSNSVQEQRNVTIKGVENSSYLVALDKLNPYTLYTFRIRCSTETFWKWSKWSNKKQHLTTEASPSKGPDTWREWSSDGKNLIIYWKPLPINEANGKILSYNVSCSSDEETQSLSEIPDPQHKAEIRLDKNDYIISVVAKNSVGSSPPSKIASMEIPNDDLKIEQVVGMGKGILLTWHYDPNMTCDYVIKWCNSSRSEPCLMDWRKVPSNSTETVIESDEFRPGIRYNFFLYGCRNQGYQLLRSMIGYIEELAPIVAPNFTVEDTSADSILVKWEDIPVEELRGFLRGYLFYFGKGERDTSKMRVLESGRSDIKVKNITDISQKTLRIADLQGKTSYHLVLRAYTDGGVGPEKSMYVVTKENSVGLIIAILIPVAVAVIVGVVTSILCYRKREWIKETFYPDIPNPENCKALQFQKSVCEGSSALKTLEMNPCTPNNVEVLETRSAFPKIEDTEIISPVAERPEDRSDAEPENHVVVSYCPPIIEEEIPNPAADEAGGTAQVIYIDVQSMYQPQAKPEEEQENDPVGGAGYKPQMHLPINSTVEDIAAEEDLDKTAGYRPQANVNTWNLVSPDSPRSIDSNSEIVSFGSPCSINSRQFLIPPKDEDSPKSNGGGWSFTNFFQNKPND

B1: PR301127 (antibody, human IgG1, kappa, V domains shown)
VH: EVQLLQSGGGLVQPGGSLRLSCAASGFTFSNYAMTWVRQAPGKGLEWVSTISGSGAFTYYADAVKGRFTISRVNSKNSLDLQMNSLRAEDTAVYYCAKGGILTGFDNWGQGTLVTVSS
VL: DIQMTQSPSTLSASVGDRVTITCRASQSISSWLAWYQQKPGKAPKLLIYKASSLESGVPSRFSGSGSGTEFSFTISSLQPDDFATYYCQQYKSFSPGGLTFGGGTKVEIKR
Span: 237
